Source: paper PMC3361975 (Biochemistry, 2012)
Residue numbers refer to the chain shown, from its start. Numbers in names are those of the source.

B1: 17X-PTDH-R301A (phosphite dehydrogenase from Pseudomonas stutzeri WM88, 17X background, Arg301Ala) (enzyme, UniProt O69054 1-336, looked up)
chain: MLPKLVITHRVHEEILQLLAPHCELITNQTDSTLTREEILRRCRDAQAMMAFMPDRVDADFLQACPELRVIGCALKGFDNFDVDACTARGVWLTFVPDLLTVPTAELAIGLAVGLGRHLRAADAFVRSGKFRGWQPRFYGTGLDNATVGFLGMGAIGLAMADRLQGWGATLQYHAAKALDTQTEQRLGLRQVACSELFASSDFILLALPLNADTLHLVNAELLALVRPGALLVNPCRGSVVDEAAVLAALERGQLGGYAADVFEMEDWARADRPQQIDPALLAHPNTLFTPHIGSAVRAVALEIERCAAQNILQALAGERPINAVNRLPKANPAAD
B2: 17X-PTDH (thermostable phosphite dehydrogenase mutant TS-PTDH with the additional E175A mutation) (enzyme, Pseudomonas stutzeri WM88, UniProt O69054 1-336, looked up)
chain: B1 chain with A301R

Target: the molecule itself
Test: SEC

Row | Protein | stoichiometry N | binding result
1 | B1 | 2 | 
2 | B2 |  | binds
